{"source": "paper PMC7909649", "about": "“Eukaryotic translation initiation factor 5A and its posttranslational modifications play an important role in proliferation and potentially in differentiation of the human enteric protozoan parasite Entamoeba histolytica” (PLoS Pathogens, 2021)", "binders": {"B1": {"name": "Entamoeba histolytica deoxyhypusine synthase 2 (EhDHS2) with carboxyl-terminal S-tag, co-expressed with EhDHS1 (natural protein, UniProt C4M2N7 1-336, looked up)", "chain": "MSITGEEFAKVTSKVLGESKEYKGEKCIGYDFDNGVDFNKVMEKMKYTGFQALNLGLCIEQVNEMRKNHAKIFLGMSSNIVSSGLREVIHYLVKNKFVDAIVVTAGGIEEDFIKTMHPTLLGDFYFKGKELYPNGYNRIGNLILPNSNYCEFEDWMDPLLLECLKEQNEHGVHWTPSKLVHKMGESINNESSIYYWAAKNNIPVFSPAITDGSIGDMIFFFSYKNEGLVLDLVQDVIKIDEMAFNAEKVGCLLVGAGIAKHHILNAMKRRGGCDYCAMLSTSIECDASDAGSEIAADRTKGFFKPECNPAKVIGDATILLPLIVASTFAQKEEPTK", "notes": "Deoxyhypusine synthase isotype 2 (EhDHS2) of Entamoeba histolytica, EHI_006030, XP_653426; stop codon removed to fuse the C-terminal S-tag of pETDuet; also called S-tag DHS2; EHI_006030; source: E. coli BL21 (DE3), co-expressed with EhDHS1 from pETDuet-EhDHS1/2; in lysate and copurified on Ni2+-NTA; not shown: S-tag, C-terminal, kept"}}, "molecular_target": "T1, Entamoeba histolytica deoxyhypusine synthase 1 (EhDHS1) with amino-terminal His-tag, co-expressed with EhDHS2 (Entamoeba histolytica, UniProt C4LXB8 1-331)", "T1 construct": "Deoxyhypusine synthase isotype 1 (EhDHS1) of Entamoeba histolytica, EHI_098350, XP_653614; the catalytically active isotype; also called His-tag DHS1; EHI_098350; source: E. coli BL21 (DE3), co-expressed with EhDHS2 from pETDuet-EhDHS1/2; in lysate and copurified on Ni2+-NTA; not shown: His tag, N-terminal, kept", "T1 sequence (looked up)": "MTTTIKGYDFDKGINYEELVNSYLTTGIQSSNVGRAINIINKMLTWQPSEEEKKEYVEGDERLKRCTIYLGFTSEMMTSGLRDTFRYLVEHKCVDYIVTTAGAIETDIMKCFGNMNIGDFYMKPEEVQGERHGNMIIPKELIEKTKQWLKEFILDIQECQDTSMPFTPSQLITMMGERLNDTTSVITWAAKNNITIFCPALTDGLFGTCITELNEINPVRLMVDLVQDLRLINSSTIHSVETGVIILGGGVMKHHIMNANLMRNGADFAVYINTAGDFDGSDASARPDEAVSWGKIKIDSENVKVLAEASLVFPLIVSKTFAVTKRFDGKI", "assay": "pull-down; Co-expression of His-EhDHS1 and EhDHS2-S-tag in E. coli BL21 (DE3); lysate (50 mM Tris-HCl pH 8.0, 300 mM NaCl, 10 mM imidazole, 0.1% Triton X-100) on Ni2+-NTA resin, 1 hr at 4°C; washed with 10-50 mM imidazole, eluted with 100-300 mM imidazole; immunoblot with anti-His and anti-S tag antibodies", "conditions": "partners not purified"}
{"binder": "B1", "values": [{"measurement": "stoichiometry N", "value": "1 EhDHS1:EhDHS2"}]}
